± gives the standard error. For part of these data: This sample holds only a part of the variants without activity.
B1: glmS ribozyme (parent)
chain: AUAAAAGCGCCAGAACUACAGAAAUGUAGUUGACGAGGAGGAGGUUUAUCGAAUUUUCGGCGGAUGCCUCCAAA

Columns and labels:
Settings in all cases: with glucosamine-6-phosphate
[1] = variants of: B1; assay: kcat; higher = faster cleavage; RNA array
Procedure, shortened: (§1)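 Glucosamine-6-phosphate (40 μM to 10 mM) in HEPES/KCl/Mg(OAc)2 buffer was flowed over sequenced MiSeq chips, and tiles were imaged over ~14 h. Barcoded ribozyme variants there had been transcribed in situ by E. coli RNA polymerase and were tracked through a hybridised Cy3 probe at 37 °C. One- or two-exponential decay fits to per-tile medians, normalised to baseline and to non-cleaving reference variants, gave kobs. kcat and KM came from weighted Michaelis–Menten fits across concentrations.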

[2] = variants of: B1; assay: self-cleavage kobs at 160 uM GlcN6P; higher = faster cleavage; RNA array
Procedure, shortened: as §1

[3] = variants of: B1; assay: self-cleavage kobs at 2500 uM GlcN6P; higher = faster cleavage; RNA array
Procedure, shortened: as §1

[4] = variants of: B1; assay: KM; higher = weaker cofactor use; RNA array
Procedure, shortened: as §1

[5] = variants of: B1; assay: self-cleavage kobs at 10000 uM GlcN6P; higher = faster cleavage; RNA array
Procedure, shortened: as §1

[6] = variants of: B1; assay: self-cleavage kobs at 640 uM GlcN6P; higher = faster cleavage; RNA array
Procedure, shortened: as §1

[7] = variants of: B1; assay: self-cleavage kobs at 40 uM GlcN6P; higher = faster cleavage; RNA array
Procedure, shortened: as §1

AUAAAAGCGCCAGAACUACAGAAAUGUAGUUGACGAGGAGGAUGUUUAUCGAAUUCUCGGCGGAUGCCUCCAAA [G43U U56C]
kcat [1]: < 1e-05 s⁻¹
self-cleavage kobs at 160 uM GlcN6P [2]: < 1e-05 s⁻¹
self-cleavage kobs at 2500 uM GlcN6P [3]: < 1e-05 s⁻¹

AUAAAAGCGCUAGAACUACAGAAAUGUAGUUGACGAGGAGGAGGUUUAUCGUAUUUUCGGCGGAUGCCUCCAAA [C11U A52U]
kcat [1]: 5.56e-05 ± 4.4e-06 s⁻¹
KM [4]: 1620 ± 690 µM
self-cleavage kobs at 2500 uM GlcN6P [3]: 3.57e-05 ± 1.8e-05 s⁻¹
self-cleavage kobs at 10000 uM GlcN6P [5]: 4.77e-05 ± 8.4e-06 s⁻¹

AUAAAAGCGCCAGAACUACAGAAAUGUAGUUGACGAGGAGGAGGUUCAUCGAAUUUUCGGCGGAUGCCUACAAA [U47C C70A]
kcat [1]: 0.000334 ± 9.1e-05 s⁻¹
self-cleavage kobs at 640 uM GlcN6P [6]: 0.000119 ± 2.1e-05 s⁻¹
self-cleavage kobs at 2500 uM GlcN6P [3]: 0.000426 ± 9.7e-05 s⁻¹
self-cleavage kobs at 10000 uM GlcN6P [5]: 0.000264 ± 4.8e-05 s⁻¹

AUAAAAGCGCCAGAACUACAGAAAUGUAGUCGACGAGGUGGAGGUUUAUCGAAUUUUCGGCGGAUGCCUCCAAA [U31C A39U]
kcat [1]: 0.00686 ± 0.0022 s⁻¹
KM [4]: 6250 ± 2600 µM
self-cleavage kobs at 40 uM GlcN6P [7]: 7.06e-05 ± 8.4e-06 s⁻¹
self-cleavage kobs at 160 uM GlcN6P [2]: 0.000146 ± 1.5e-05 s⁻¹
self-cleavage kobs at 640 uM GlcN6P [6]: 0.000692 ± 6.8e-05 s⁻¹
self-cleavage kobs at 2500 uM GlcN6P [3]: 0.00175 ± 0.00023 s⁻¹
self-cleavage kobs at 10000 uM GlcN6P [5]: 0.00432 ± 0.00036 s⁻¹

AUAAAAGCGCCAUAACUACAGAAAUGUAGUUGACGAGGAGGAGGUUUAUCGAAUUUUCGGCGGAUGCCGCCAAA [G13U U69G]
kcat [1]: 2.13e-05 ± 6.6e-06 s⁻¹

AUAAAAGCGCCAGAACUACAGAAAUGUAGUUGACGAAGAGGAGGUUUAUCGAAUUUUCGGCGGAUGCCCCCAAA [G37A U69C]
kcat [1]: 0.0003 ± 5.9e-05 s⁻¹
KM [4]: 1170 ± 530 µM
self-cleavage kobs at 640 uM GlcN6P [6]: 0.000116 ± 2.2e-05 s⁻¹
self-cleavage kobs at 2500 uM GlcN6P [3]: 0.000167 ± 3.3e-05 s⁻¹
self-cleavage kobs at 10000 uM GlcN6P [5]: 0.000325 ± 5.8e-05 s⁻¹

AUAAAAGCGCCAGAACUACAGAAAUGUAGUUGACGAGGAGGAGGUUAAUCGAAUUUUGGGCGGAUGCCUCCAAA [U47A C58G]
kcat [1]: 0.000134 ± 1.1e-05 s⁻¹
KM [4]: 1740 ± 440 µM
self-cleavage kobs at 640 uM GlcN6P [6]: 4.54e-05 ± 1.7e-05 s⁻¹
self-cleavage kobs at 2500 uM GlcN6P [3]: 7.52e-05 ± 1.2e-05 s⁻¹
self-cleavage kobs at 10000 uM GlcN6P [5]: 0.000117 ± 1.5e-05 s⁻¹

AUAAAAGCGCCAGAACUACAGAAAUGUAGUUGACGAGGAGGAGGUUUAUCGACUUGUCGGCGGAUGCCUCCAAA [A53C U56G]
kcat [1]: 0.00299 ± 0.00066 s⁻¹
KM [4]: 1830 ± 570 µM
self-cleavage kobs at 40 uM GlcN6P [7]: 7.77e-05 ± 1.1e-05 s⁻¹
self-cleavage kobs at 160 uM GlcN6P [2]: 0.000166 ± 4.2e-05 s⁻¹
self-cleavage kobs at 640 uM GlcN6P [6]: 0.000851 ± 0.00012 s⁻¹
self-cleavage kobs at 2500 uM GlcN6P [3]: 0.00165 ± 0.00035 s⁻¹
self-cleavage kobs at 10000 uM GlcN6P [5]: 0.00254 ± 0.00039 s⁻¹

AUAAAAGCGCCAGAACUACAGAAAUGUAGUUGACGAGGAGGAGGUUUAUCGAAUUUUCGGCUGAUGCCUCAAAA [G62U C71A]
kcat [1]: < 1e-05 s⁻¹
self-cleavage kobs at 40 uM GlcN6P [7]: < 1e-05 s⁻¹
self-cleavage kobs at 2500 uM GlcN6P [3]: < 1e-05 s⁻¹
